Test results published in PMC11260453.

T1: OC2 DNA-binding domain (UniProt O95948 330-485)
T1 sequence: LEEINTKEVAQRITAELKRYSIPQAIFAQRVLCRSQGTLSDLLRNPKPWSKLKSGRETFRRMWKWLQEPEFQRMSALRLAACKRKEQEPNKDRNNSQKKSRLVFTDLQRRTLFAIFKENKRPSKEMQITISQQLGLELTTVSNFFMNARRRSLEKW

B1: UGT2B15 promoter 20 bp WT (dsDNA)
DNA 1: TAACTTGATTGATTTTTCCT
DNA 2: AGGAAAAATCAATCAAGTTA
B2: UGT2B15 promoter 20 bp mutant (dsDNA)
DNA 1: TAACTTGGCTGTCTTTTCCT
DNA 2: AGGAAAAGACAGCCAAGTTA

Assays:
[1] = molecular target: T1, OC2 DNA-binding domain; assay: SPR
[2] = molecular target: T1, OC2 DNA-binding domain; assay: SPR; remark: listed apart in the source

Row | Binder | Kd [1] [nM] | binding result [2]
1 | B1 | 1.13 ± 0.01 | 
2 | B2 |  | no binding
